Key:
U2OS cells [1] = experiment: FACS analysis of DNA content / cell cycle distribution; type: cell-based, human; settings: for cells in G2 phase: control 20%
Procedure: The distribution of the various phases of the cell cycle of the protein transduced cells was analysed by FACS analysis. Distribution of the DNA content of the cell populations was detected. 2n represents a diploid DNA equivalent (non replicated; G1 phase), 4n represents the tetraploid DNA equivalent (replicated; G2/M phase). For the FACS analysis the cells were separated employing the DDM mode that allows to estimate DNA content of a single cell. U2OS cells were grown for 24 hours (upper row) or 48 hours (lower row) in the presence of increasing amounts of […] (10 nM, 50 nM, 100 nM) as indicated and with only one addition of proteins; non treated cells (control); cells treated with a nuclease impaired derivative of […] (SC34, 100 nM). All the histograms shown represent a measure of DNA content relative to the cell numbers as indicated only on the upper right panel.
U2OS cells were incubated with […] (10 nM, panel B), or with H2O2 (10 μM, panelC), or both ([…], 10 nM; H2O2, 10 μM; panel D), or with no agent as a control (panel A). Further treatment cells were analysed in FACS for DNA content; the percentage of the various cell cycle phases are indicated at the bottoms of the individual histograms.
Finally, to confirm that the DSB's that are produced in vivo also induce perturbations in the cell cycle, DNA content in the various phases of the cell cycle was analysed by Fluorescence Activated Cell Sorting (FACS) after transduction of the proteins of the invention. After the treatment with diverse proteins at various concentrations and during different timepoints, the cells were fixed in 70% ethanol, treated with RNAse A and stained with propidium […].
The FACS analysis was done using a FACSCalibur™ (Becton Dickinson) apparatus. The obtained data were evaluated with the CellQuest™ software program package. At least 3×10^4 single events for every sample were analysed in the DDM mode. The statistic analysis of the DNA content distribution during the cell cycle was done with the MODFIT LT™ software program package. A 2N diploid DNA content correspond to cells in the G1 phase of the cell cycle, 4N represents a relative tetraploid DNA content and corresponds to G2 and/or M phase of the cell cycle. An intermediate DNA content represents S phase corresponding to a population actively replicating DNA during the cell cycle and a content that is below diploid 2N represents cells in apoptosis.
U2OS cells were incubated with 10 nM […] and with 10 μM H2O2 alone or in combination ant the cell cycle profile was analysed by FACS.

U2OS cells [2] = experiment: Histone H2AX Ser139 phosphorylation, single cell fluorescence microscopy; type: cell-based, human; settings: 100 nM, 60 minutes
Procedure: U2OS cells were treated with [sequence] (100 nM, central column) for 60 minutes, in addition treatment was done with Wortmanin (50 μM, WM, right column), or with no agent as a control (left column). After treatment cells were stained with specific antibodies to H2AX-Ser-139 phosphorylated (red) or for Histone 2B (served as a control, green) and analysed on a single cell level by fluorescence microscopy.
As another example for a phosphorylation of a substrate of ATM in response to the object of the invention, histone H2AX Ser^139 phosphorylation was analysed. […] U2OS cells were treated for 60 minutes with [sequence], fixed and analysed for histone H2AX Ser^139 phosphorylation. Cells were analysed with a specific antiserum to phospho-Ser 139 on histone H2AX and analysed in the microscope on a single cell basis. As a control histone 2B was analysed.

[3] = test system: AT-5 cells (mutated for ATM); experiment: FACS analysis of DNA content / cell cycle distribution; type: cell-based; settings: incubation for 36 hours (25 nM, 100 nM)
Procedure: FIG. 8. Induction of Cell Cycle Block and Clonogenic Activity by […] of Cells Mutated for ATM (AT-5) in Comparison to Non Mutated Cells (MRC-5). • A) Distribution of DNA content distribution during the cell cycle detected by FACS analysis of AT-5 cells after 36 hours of […] treatment (25 nM, 100 nM), or with adriamycin (0.02 μg/ml; ADRIAMYCIN), or with SC34 (100 nM), and as control from non treated cells. The histograms represent DNA content relative to the cell-numbers; the panel on the right indicates the percentage of the corresponding distributions of the various cell cycle phases as calculated with the MODFIT™ program-package. • B) Colony forming assay with cell lines mutated for ATM and induced for DNA damage by […].
The cell cycle response to DSB's induced by […] treatment were analysed in p53 positive or negative cells. […] Incubation for 36 hours of the cell lines mutated for ATM (AT-5) with […] results in a transient retardation of the cell cycle, as was determined by a DNA content FACS analysis. […] A single addition of […] for 60 minutes to the AT-5 cells was sufficient to induce cell cycle stop after 24 hours (FIG. 8A) and finally leads to cell death, obtained from not correctly ligated DNA, and consequently, the clonogenic activity after a single treatment with […] for 60 minutes was below 0.02% for AT-5 cells. […]

B1: SCPVUTAT: single chain PvuII endonuclease (aa 1-157, GSGG linker, aa 2-157) fused to HIV Tat peptide and six histidine tag; SEQ ID NO:2 (protein, listed as Proteus vulgaris)
chain: MSHPDLNKLLELWPHIQEYQDLALKHGINDIFQDNGGKLLQVLLITGLTVLPGREGNDAVDNAGQEYELKSINIDLTKGFSTHHHMNPVIIAKYRQVPWIFAIYRGIAIEAIYRLEPKDLEFYYDKWERKWYSDGHKDINNPKIPVKYVMEHGTKIYGSGGSHPDLNKLLELWPHIQEYQDLALKHGINDIFQDNGGKLLQVLLITGLTVLPGREGNDAVDNAGQEYELKSINIDLTKGFSTHHHMNPVIIAKYRQVPWIFAIYRGIAIEAIYRLEPKDLEFYYDKWERKWYSDGHKDINNPKIPVKYVMEHGTKIYGSYGRKKRRQRRRGGSHHHHHH
cells in G2 phase (U2OS cells [1]; 10 nM SCPVUTAT alone): 28% | cells in G2 phase (U2OS cells [1]; 10 nM SCPVUTAT in combination with 10 μM H2O2): 45% | change of cell cycle distribution (DNA content) (U2OS cells [1]; 10 nM, incubation for 24 hours): increase in the teraploid population | histone H2AX Ser139 phosphorylation (U2OS cells [2]): rapidly induces histone H2AX Ser^139 phosphorylation | change of cell cycle distribution (DNA content) [3]: strong increase in 4N G2 DNA content

From US20150018409A1, “CHIMERIC POLYPEPTIDES AND THEIR USE” (ADRIACELL S.P.A., priority 2003, published 2015)
